Assay results from the supplement of paper PMC9732359.
± gives the uncertainty stated by the source.

assay: protein stability index of a GFP-peptide fusion (yeast GPS) (PSI 1-4); higher = more stable; sorted into four equal gates, so the index is relative within each strain; details: ubr1∆
Procedure, shortened: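 The protein stability index of a peptide was calculated by multiplying its read frequency in each gate by that gate's number and adding the products. The peptides were tiled 17-residue stretches of yeast proteins, fused downstream of GFP on a Cherry-expressing plasmid and carried in yeast as a pooled library. Mid-log cultures in leucine-free medium were sorted into four equal gates by GFP/Cherry ratio, and each gate's plasmids were PCR-amplified and Illumina-sequenced.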

| Sequence | protein stability index |
| --- | --- |
| SKAFKESSDFGAIILTK [SRP54] | 1.67 ± 0.06 |
| SKAPAEKKPAAKKTSTS [HTB1] | 3.33 ± 0.11 |
| SKDVSRLLSALGPRGVS [SRP21] | 2.83 ± 0.084 |
| SKEKANFLETIASTEKP [SIR4] | 2.64 ± 0.058 |
| SKEQIHGSIIILGMLSL [YCS4] | 2.82 ± 0.045 |
| SKIIVFPRNGKAPEAEQ [RPL13A] | 2.98 ± 0.15 |
| SKILSQAPSELELQVAK [RPS7B] | 3 ± 0.051 |
| SKINELSYYVEETNVDI [SMC4] | 2.99 ± 0.15 |
| SKKGKPTVNKKPKNKKK [SRP72] | 2.9 ± 0.098 |
| SKLNELKKELKLLAKEL [SMC2] | 3.09 ± 0.15 |
| SKNAERKWAARAASAKI [RPS8A] | 3.219 ± 0.026 |
| SKQPNSAIRKCVRVQLI [RPS23A] | 2.96 ± 0.045 |
| SKRLPLRFPEHTSSGSV [BRR2] | 2.34 ± 0.065 |
| SKRPQLGEIPNPMKKHK [SIR4] | 2.69 ± 0.079 |
| SKSAFSFGTANTNGTNA [YOR098C/NUP1] | 2.86 ± 0.067 |
| SKVIIKFLQVMQKHGYI [RPS22A] | 2 ± 0.039 |
| SKVSKQQAKGAFQKVAA [RPL24B] | 2.65 ± 0.036 |
| SLDAREANFDLINIDTS [RPC40] | 3.04 ± 0.071 |
| SLDLIKERRSLKPEVRK [RPL24A] | 3.32 ± 0.22 |
| SLDNKTLDDLVTKWTNQ [YJL041W/NSP1] | 3.17 ± 0.043 |
| SLEALIDLCHDFPHLTP [YCS4] | 2.25 ± 0.031 |
| SLEDPQVRKKQIETINF [YDL116W/NUP84] | 2.23 ± 0.19 |
| SLEEIIAEGQKKFATVP [RPP2B] | 2.59 ± 0.04 |
| SLGSSSTTASGTTATGT [YGR119C/NUP57] | 3.18 ± 0.067 |
| SLIRNNLHAEGWPKLQL [ECM29] | 1.04 ± 0.085 |

| Sequence | protein stability index |
| --- | --- |
| SLKALASKYNCDKSVCR [RPL40A] | 2.94 ± 0.087 |
| SLLESGSEILGDLKLQV [RPO21] | 3.02 ± 0.18 |
| SLLLKNYLNDMHDSNLQ [SKP1] | 2.08 ± 0.05 |
| SLMDTLITPAVRNTAPN [YCG1] | 1.92 ± 0.058 |
| SLMSSQNKLFYITNADD [SIR3] | 1.49 ± 0.095 |
| SLNLQYVNYEISTAKAW [YML103C/NUP188] | 2.69 ± 0.058 |
| SLNLTDDVISNAGTNDN [MCD1] | 2.96 ± 0.041 |
| SLNSMTNAKLPNVDLVT [RGR1] | 2.46 ± 0.041 |
| SLQNNLQNNINNSNNNN [SNF11] | 3.29 ± 0.062 |
| SLRRIRDEMSKAELPQW [MED8] | 1.92 ± 0.04 |
| SLSDELNLDEIVACELI [YJL039C/NUP192] | 2.61 ± 0.14 |
| SLTYKKISLRDICLKLN [RPN3] | 2.05 ± 0.04 |
| SLYQVDPSGSYFPWKAT [PRE8] | 3.25 ± 0.099 |
| SLYTNTSRKALEEVSLK [RPL3] | 1.83 ± 0.19 |
| SLYTSREPRVVSALQML [PUP1] | 2.92 ± 0.048 |
| SMDVDDKNSGVKSEVDV [ITC1] | 2.5 ± 0.043 |
| SMILIQQTEKLNPQVAD [RPN2] | 1.63 ± 0.03 |
| SMRVKPSASLKLHHDLK [YMR129W/POM152] | 3.1 ± 0.048 |
| SMSGRISAKDMGQGLCN [BRR2] | 3.19 ± 0.078 |
| SMSLQSKNLGEINTALN [SWI1] | 3.08 ± 0.12 |
| SMTATADVLAMAKVEVN [RIP1] | 2 ± 0.074 |
| SNDSQSHFDYNTLEFII [YCG1] | 2.89 ± 0.14 |
| SNGIFYGPSFTKRESLN [SIR2] | 3.07 ± 0.039 |
| SNLQRAQNVPMNIIQQQ [GAL11] | 2.34 ± 0.031 |
| SNTTTHVPEKKSTDLTP [MTR3] | 1.31 ± 0.29 |

| Sequence | protein stability index |
| --- | --- |
| SNTVNANNYSSNIGNNS [YDL088C/ASM4] | 3.19 ± 0.066 |
| SPGSPAYSPKQDEQKHN [RPO21] | 3.27 ± 0.11 |
| SPPCYIIDHIPGHSLLL [SNF5] | 2.49 ± 0.047 |
| SPPPQTHQSPPPPPQQS [SNF5] | 2.74 ± 0.03 |
| SPQQFLRAHTDDSRNPD [PRE2] | 2.88 ± 0.079 |
| SPSEFVDVAIPCNNRGK [RPS0A] | 1.54 ± 0.096 |
| SPSTSANVPSTATTGKR [RPN4] | 2.65 ± 0.096 |
| SPVRSDSADVPAFSNSN [YMR153W/NUP53] | 2.93 ± 0.057 |
| SQISPEKQTPNKKDKKK [RPN1] | 3.12 ± 0.069 |
| SQLAQVAAFVNNYPNVE [BRR2] | 2.76 ± 0.051 |
| SQLLLERLMISSDAFEV [RET1] | 1.86 ± 0.049 |
| SQNDGFVIIRGSQILSG [RPO31] | 2.61 ± 0.29 |
| SQPTNSTTTSLHVPNLQ [SMC4] | 2.03 ± 0.027 |
| SQTTLVQFGLNEETFTV [ARP9] | 2.64 ± 0.059 |
| SRGGVTQVRVEFLEDTS [RPS28A] | 3.22 ± 0.05 |
| SRGLFEKKLMQDNKQLY [YDL116W/NUP84] | 2.93 ± 0.1 |
| SRMRLIRQDVNLGRAVF [PRP8] | 2.35 ± 0.054 |
| SRMTVGKMIELISGKAG [RET1] | 3.12 ± 0.13 |
| SRNKALELNLSVLHSWV [YJL039C/NUP192] | 2.51 ± 0.24 |
| SRPDILSKIKFPESIWK [YCG1] | 2.06 ± 0.029 |
| SSAHLIRINDEPILGQI [YML103C/NUP188] | 2.45 ± 0.069 |
| SSASPSALTSPTDSSKI [SIR3] | 2.72 ± 0.033 |
| SSDELKVIEEQLKHTKL [SMC4] | 3.25 ± 0.058 |
| SSEFVSQDTKVICSVTG [RRP46] | 2.58 ± 0.059 |
| SSEGFYSKIKHLGLDDP [SIR2] | 1.2 ± 0.14 |

| Sequence | protein stability index |
| --- | --- |
| SSFNFNKNLPFVWLSSE [SWI1] | 2.4 ± 0.033 |
| SSFTFGSTTIEKKNDEN [YLR335W/NUP2] | 2.99 ± 0.046 |
| SSGQDKKKKKGSNQKPK [RPT2] | 3.1 ± 0.15 |
| SSIDKKSSILTVLQKNS [YML103C/NUP188] | 2.46 ± 0.058 |
| SSIVAIDWASPEYGRII [YGL100W/SEH1] | 2.69 ± 0.061 |
| SSLNLEDTPANDSSATR [RPB8] | 3.08 ± 0.048 |
| SSNPLGITGNLDRIPMH [COB] | 2.49 ± 0.094 |
| SSPLGFEETKLSTTPTK [SIR4] | 2.67 ± 0.058 |
| SSPSHIELVVTEKEEAV [RPL17A] | 2.08 ± 0.039 |
| SSPYAAMLAAQDVAAKC [RPS14B] | 1.73 ± 0.05 |
| SSSPLAMSETLSKVSLL [PRE8] | 2.32 ± 0.059 |
| SSVEMLLDVVKGTEASN [YDL116W/NUP84] | 2.9 ± 0.063 |
| STAAAPIAAPKKPRKPR [PGD1] | 3.15 ± 0.039 |
| STEETTANTGTIGKRRT [TAF14] | 2.77 ± 0.12 |
| STELNNKQYELFMKSLI [SWI1] | 2.74 ± 0.048 |
| STEYMMQFAKSKTVKVL [RPN6] | 1.07 ± 0.094 |
| STGAADGGYNAQLAKAK [SMC2] | 3.3 ± 0.13 |
| STIDANFADKYDEVKKH [RPL8A] | 2.93 ± 0.1 |
| STKRVTKHPSLKTLTHK [POP7] | 2.64 ± 0.061 |
| STKTGTPSDLSESGSKL [POP1] | 3.35 ± 0.048 |
| STNEDQNNSKHTEDTVN [SRB5] | 2.31 ± 0.051 |
| STPDQRKRVYNIKFLSK [ESC2] | 2.93 ± 0.12 |
